The source of these data is patent US20120201781A1 (AbbVie / Abbott, published 2012).

As usually defined, the Kd is the free concentration of one partner at which half of the binding sites on the other are occupied at equilibrium, for simple one-to-one binding. For orientation: koff means the rate constant with which the complex falls apart. For orientation: kon means the rate constant with which the complex forms.

Assay [1] addresses T1, recombinant human IL-1α (human, UniProt P01583 113-271).
T1 sequence: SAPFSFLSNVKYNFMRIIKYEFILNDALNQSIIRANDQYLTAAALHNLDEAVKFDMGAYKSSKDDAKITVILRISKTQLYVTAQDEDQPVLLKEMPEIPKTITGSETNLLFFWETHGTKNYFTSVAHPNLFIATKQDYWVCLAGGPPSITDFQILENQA
Kind of assay: cell-based or functional assay.

The target of assay [2] is T1, recombinant human IL-1α. Description: SPR (Biacore 3000), binder captured via goat anti-human IgG Fc. As for the experimental part:
(§1) Approximately, 5000 RU of goat anti-human IgG Fcγ fragment specific polyclonal antibody (Pierce Biotechnology Inc, Rockford, Ill.) diluted in 10 mM sodium acetate (pH 4.5) was directly immobilized across a CM5 research grade biosensor chip using a standard amine coupling kit according to manufacturer's instructions and procedures at […]. Unreacted moieties on the biosensor surface were blocked with ethanolamine. Modified carboxymethyl dextran surface in flowcell 2 and 4 was used as a reaction surface. Unmodified carboxymethyl dextran without goat anti-human IgG in flow cell 1 and 3 was used as the reference surface. For kinetic analysis, rate equations derived from the 1:1 Langmuir binding model were fitted simultaneously to association and dissociation phases of all ten injections (using global fit analysis) using the Bioevaluation 4.0.1 software. Purified DVD-Ig samples were diluted in HEPES-buffered saline for capture across goat anti-human IgG Fc specific reaction surfaces and injected over reaction matrices at a flow rate of […]. The association and dissociation rate constants, kon (M-1s-1) and koff (s-1) were determined under a continuous flow rate of 25 ml/minute. […] The equilibrium dissociation constant (M) of the reaction between DVD-Ig molecule and rhIL1α/β was then calculated from the kinetic rate constants by the following formula: KD=koff/kon. Aliquots of rhIL1α/β samples were also simultaneously injected over a blank reference and reaction CM surface to record and subtract any nonspecific binding background to eliminate the majority of the refractive index change and injection noise. Surfaces were regenerated with two subsequent […] injections of 10 mM Glycine (pH 1.5) at a flow rate of […]. The anti-Fc antibody immobilized surfaces were completely regenerated and retained their full capture capacity over twelve cycles. The apparent stoichiometry of the captured DVD-Ig-rhIL1α/β complex was calculated under saturating binding conditions (steady-state equilibrium) using the following formula: […]
(In general: Surface plasmon resonance follows binding to a sensor surface in real time, without labels.)

Assay [3] deals with T1, recombinant human IL-1α. Kind of assay: SPR (Biacore 3000), saturating binding. The procedure: (§2) The association and dissociation rate constants, kon (M-1s-1) and koff (s-1) were determined under a continuous flow rate of 25 ml/minute. […] The equilibrium dissociation constant (M) of the reaction between DVD-Ig molecule and rhIL1α/β was then calculated from the kinetic rate constants by the following formula: KD=koff/kon. Aliquots of rhIL1α/β samples were also simultaneously injected over a blank reference and reaction CM surface to record and subtract any nonspecific binding background to eliminate the majority of the refractive index change and injection noise. Surfaces were regenerated with two subsequent […] injections of 10 mM Glycine (pH 1.5) at a flow rate of […]. The anti-Fc antibody immobilized surfaces were completely regenerated and retained their full capture capacity over twelve cycles. The apparent stoichiometry of the captured DVD-Ig-rhIL1α/β complex was calculated under saturating binding conditions (steady-state equilibrium) using the following formula: […]
(§3) The affinity of the two DVD-Ig binding proteins to hIL-1 as compared to the affinity of chimeric antibodies to hIL-1 was similar as indicated by the evaluation of the stoichiometry to IL-1. Both chimeric antibodies, being bivalent monospecific, bound to IL-1α and IL-1β on Biacore with a stoichiometry of 1.6 and 1.7, respectively. This is common for an IgG due to inter-molecular interference when antibodies are immobilized densely on the Biacore sense chip resulting in stoichiometry being in the range from 1.5 to 2.0.

Assay [4] deals with T2, recombinant human IL-1β (human, UniProt P01584 117-269). Description: cell-based or functional assay.
The target of assay [5] is T2, recombinant human IL-1β. Kind of assay: SPR (Biacore 3000), binder captured via goat anti-human IgG Fc. The procedure:
as §1

The target in assay [6] is T2, recombinant human IL-1β. Description: SPR (Biacore 3000), saturating binding. As for the experimental part:
as §2, §3

The target in assay [7] is T1, recombinant human IL-1α. Description: SPR (Biacore), mAb captured via goat anti-mouse IgG.
Assay [8] deals with T1, recombinant human IL-1α. Description: cell-based or functional assay. This is another data set of the same source.
Assay [9] addresses T1, recombinant human IL-1α. Description: cell-based or functional assay. The source holds these as a separate data set.
Assay [10] addresses T1, recombinant human IL-1α. Kind of assay: SPR (Biacore).
Assay [11] concerns the target T3, murine IL-1α (mouse, UniProt P01582 115-270).
T3 construct: also called mIL-1α; mouse IL-1α
T3 sequence (looked up): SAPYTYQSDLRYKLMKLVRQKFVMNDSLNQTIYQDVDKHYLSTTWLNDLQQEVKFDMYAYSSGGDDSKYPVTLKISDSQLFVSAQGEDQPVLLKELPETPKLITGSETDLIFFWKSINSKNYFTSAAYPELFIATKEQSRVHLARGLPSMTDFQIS
Kind of assay: affinity, method not named for this table (Biacore elsewhere).

Assay [12] deals with T3, murine IL-1α. Description: cell-based or functional assay.
Assay [13] has as its target T4, murine IL-1β (mouse, UniProt P10749 118-269).
T4 construct: also called mIL-1β; mouse IL-1β
T4 sequence (looked up): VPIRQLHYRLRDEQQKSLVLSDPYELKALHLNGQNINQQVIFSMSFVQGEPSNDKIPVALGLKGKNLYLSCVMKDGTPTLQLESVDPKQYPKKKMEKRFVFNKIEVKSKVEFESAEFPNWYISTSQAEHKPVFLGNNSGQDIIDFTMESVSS
Kind of assay: affinity, method not named for this table (Biacore elsewhere).

For assay [14], the target named is T4, murine IL-1β. Description: cell-based or functional assay.

B1: chimeric 3D12.E3 antibody (antibody, V domains shown)
VH: QIQLVQSGPELKKPGETVKISCKASGYTFRNYGMNWVKQAPGKDLKRMAWINTYTGESTYADDFKGRFAFSLETSASTAYLQINNLKNEDTATYFCARGIYYYGSSYAMDYWGQGTSVTVSS
VL: NIQMTQTTSSLSASLGDRVTISCRASQDISNCLNWYQQKPDGTVKLLIYYTSRLHSGVPSRFSGSGSGTDYSLTISNLEQEDIATYFCQQGKTLPYAFGGGTKLEINR
notes: Murine variable domains on human Cγ1 and human Cκ constant regions (3D12.E3-VH-hCγ1, 3D12.E3-VL-hCκ); also called 3D12.E3-Ch; 3D12.E3 chimeric Ab
As for B1, in the assay with recombinant human IL-1α [1], the “Potency (IC50) M, MRC-5 bioassay” value was found to be 0.7 nM. Moreover, in the assay with recombinant human IL-1α [2], the Kd was 1.34 nM, the koff was determined as 0.000552 s⁻¹ and the kon is 412000 M⁻¹ s⁻¹. In addition, the Stoichiometry with recombinant human IL-1α [3] turned out to be 1.6.

B2: chimeric 13F5.G5 antibody (antibody, V domains shown)
VH: QVQLQQSGAELVRPGSSVKISCKASGYAFSSYWMNWVKQRPGQGLEWIGQIYPGDGDTNYNGKFKGKATLTADKSSSTSYMQLSGLTSEDSAMYFCVRFPTGNDYYAMDYWGQGTSVTVSS
VL: NIVLTQSPASLAVSLGQRATISCRASESVDSYGNSYMHWYQQKPGQPPKLLIYLASNLESGVPARFSGSGSRTDFTLTIDPVEADDAATYYCQQNNEDPFTFGSGTKLEIKR
notes: Murine variable domains on human Cγ1 and human Cκ constant regions (13F5.G5-VH-Cγ1, 13F5.G5-VL-Cκ); also called 13F5.G5-Ch; 13F5.G5 chimeric Ab
For B2, the “Potency (IC50) M, MRC-5 bioassay” value in the assay with recombinant human IL-1β [4] came out at 0.53 nM. In the assay with recombinant human IL-1β [5], the Kd was found to be 0.462 nM, the koff came to 0.000654 s⁻¹ and the on-rate constant (kon) amounted to 1.41e+06 M⁻¹ s⁻¹. Further, the Stoichiometry with recombinant human IL-1β [6] came out at 1.7.

B3: murine monoclonal antibody 6H3.1A4.3E11 (antibody, V domains shown)
VH: QVQLQQPGAELVRPGASVKLSCKASGYTFTTYWMNWVKQRPEQGLEWIGRIDPYDSETLYSQKFKDTAILTVDKSSSTAYMQLSSLTSEDSAVYYCARYGFDYWGQGTTLTVSS
VL: QIVLTQSPALMSASPGEKVTMTCSASSSVNYMYWYQQKPRSSPKPWIYLTSNLASGVPARFSGSGSGTSYSLTISSMEAEDAATYYCQQWNSNPYTFGGGTKLEMKR
notes: Murine hybridoma mAb, anti-hIL-1α
Take B3: the Kd with recombinant human IL-1α [7] and with recombinant human IL-1α [10] was 0.354 nM each time. For the same molecule, the “IC50 (M), MRC-5 bioassay” value with recombinant human IL-1α [8] came out at 2.4e-10 M. Also, in the assay with recombinant human IL-1α [9], the “IC50 (M), MRC-5 bioassay (inhibition of IL-8 production)” value came to 2.4e-10 M.

B4: mouse anti-mouse IL-1α monoclonal antibody 9H10 (antibody, V domains shown)
VH: QVILKESGPGILQPSQTLSLTCSFSGFSLSTYGTAVNWIRQPSGKGLEWLAQIGSDDRKLYNPFLKSRITLSEDTSNSQVFLKITSVDTEDSATYYCANGVMEYWGLGTSVTVSS
VL: SIVMTQTPKFLLVSAGDRVTITCKASQSVNHDVAWYQQMPGQSPKLLIYFASNRYTGVPDRFTGSGYGTDFTFTISTVQAEDLAVYFCQQDYSSPYTFGGGTKLEIKR
notes: Mouse mAb from IL-1αβ double KO mice; also called anti-IL-1α (9H10)
In the case of B4, binding in the assay with murine IL-1α [11] was put at a Kd of 0.173 nM. For the same molecule, the “IC50 (M), in vitro potency” value with murine IL-1α [12] worked out at 2e-10 M.

B5: mIL-1α/β DVD-Ig binding protein (bispecific antibody, mouse IgG2a, kappa)
heavy: EVQLQQSGPELVKPGTSVKMSCKTSGYTFTSYVMHWVKQKPGQGLEWIGYIIPYNDNTKYNEKFKGKATLTSDKSSSTAYMELSSLTSEDSAVYYCARRNEYYGSSFFDYWGQGTTLTVSSAKTTAPSVYPLAPQVILKESGPGILQPSQTLSLTCSFSGFSLSTYGTAVNWIRQPSGKGLEWLAQIGSDDRKLYNPFLKSRITLSEDTSNSQVFLKITSVDTEDSATYYCANGVMEYWGLGTSVTVSSAKTTAPSVYPLAPVCGDTTGSSVTLGCLVKGYFPEPVTLTWNSGSLSSGVHTFPAVLQSDLYTLSSSVTVTSSTWPSQSITCNVAHPASSTKVDKKIEPRGPTIKPCPPCKCPAPNLLGGPSVFIFPPKIKDVLMISLSPIVTCVVVDVSEDDPDVQISWFVNNVEVHTAQTQTHREDYNSTLRVVSALPIQHQDWMSGKEFKCKVNNKDLPAPIERTISKPKGSVRAPQVYVLPPPEEEMTKKQVTLTCMVTDFMPEDIYVEWTNNGKTELNYKNTEPVLDSDGSYFMYSKLRVEKKNWVERNSYSCSVVHEGLHNHHTTKSFSRTPGK
light: DIQMTQSPASLSASVGETVTITCRGSGILHNYLVWYQQKQGKSPQLLVYSAKILADGVPSRFSGSGSGTQYSLKINSLQPEDFGSYYCQHFWSTPFTFGSGTKLEIKRADAAPTVSIFPPSIVMTQTPKFLLVSAGDRVTITCKASQSVNHDVAWYQQMPGQSPKLLIYFASNRYTGVPDRFTGSGYGTDFTFTISTVQAEDLAVYFCQQDYSSPYTFGGGTKLEIKRADAAPTVSIFPPSSEQLTSGGASVVCFLNNFYPKDINVKWKIDGSERQNGVLNSWTDQDSKDSTYSMSSTLTLTKDEYERHNSYTCEATHKTSTSPIVKSFNRNEC
notes: V(anti-mIL-1β 10G11)-linker-V(anti-mIL-1α 9H10)-murine constant region (Cγ2a and Cκ); also called mDVD4-Ig; murine IL-1α/β DVD4-Ig
For the molecule B5, the Kd amounted to 0.694 nM with murine IL-1β [13] and 0.766 nM in the assay with murine IL-1α [11]. For the same molecule, the entries for the “IC50 (M), in vitro potency” value in the assay with murine IL-1β [14] and with murine IL-1α [12] were 8e-10 M and 2e-09 M, respectively.

B6: mouse anti-mouse IL-1β monoclonal antibody 10G11 (antibody, V domains shown)
VH: EVQLQQSGPELVKPGTSVKMSCKTSGYTFTSYVMHWVKQKPGQGLEWIGYIIPYNDNTKYNEKFKGKATLTSDKSSSTAYMELSSLTSEDSAVYYCARRNEYYGSSFFDYWGQGTTLTVSS
VL: DIQMTQSPASLSASVGETVTITCRGSGILHNYLVWYQQKQGKSPQLLVYSAKILADGVPSRFSGSGSGTQYSLKINSLQPEDFGSYYCQHFWSTPFTFGSGTKLEIKR
notes: Mouse mAb from IL-1αβ double KO mice; also called anti-IL-1β (10G11)
B6 showed a Kd with murine IL-1β [13] of 0.23 nM. Besides, in the assay with murine IL-1β [14], the “IC50 (M), in vitro potency” value was 3.7e-10 M.

B7: murine monoclonal antibody 18F4.2C8 (antibody, V domains shown)
VH: EVQLQQSGAELVKPGASVKLSCTASGLNIKDTYMHWLKQRPEQGLEWIGRIDPANGNAKYDPRFLGKATITADTSSNTAYLQLSSLTSEDTAVYYCARGDGNFHFDYWGQGTTLTVSS
VL: DIVMTQSQRFMSTSVGDRVSVTCKASQNVGTNIAWYQQKPGQSPRALIYSASYRYSGVPDRFTGSGSGTDFTLTISNVQSVDLAEYFCQQYTRYPLTFGGGTKLEIKR
notes: as for B3
Take B7: the Kd in the assay with recombinant human IL-1α [7] was found to be 0.578 nM; with recombinant human IL-1α [10], 0.595 nM. For the same molecule, in the assay with recombinant human IL-1α [8], the “IC50 (M), MRC-5 bioassay” value was determined as 3.3e-10 M. The “IC50 (M), MRC-5 bioassay (inhibition of IL-8 production)” value with recombinant human IL-1α [9] stood at 8.9e-11 M.
